Results: patent US20160108091A1

Target: human APJ receptor (hAPJ) (human) (UniProt P35414)
Assay: cell-based or functional assay

human APJ receptor (hAPJ) (human), sequence (P35414 whole entry): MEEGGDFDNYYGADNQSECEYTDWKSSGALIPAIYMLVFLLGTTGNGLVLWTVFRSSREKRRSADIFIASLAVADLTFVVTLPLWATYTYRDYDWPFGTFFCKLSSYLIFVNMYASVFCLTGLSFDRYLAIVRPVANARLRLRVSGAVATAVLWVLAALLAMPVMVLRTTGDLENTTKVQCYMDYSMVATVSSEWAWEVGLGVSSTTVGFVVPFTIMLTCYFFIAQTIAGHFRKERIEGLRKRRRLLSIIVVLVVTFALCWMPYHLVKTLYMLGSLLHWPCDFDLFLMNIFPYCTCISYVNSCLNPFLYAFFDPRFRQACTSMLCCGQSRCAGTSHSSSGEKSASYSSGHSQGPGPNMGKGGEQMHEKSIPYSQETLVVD

Row | Substance | hAPJ Ca^2+ Flux EC50 [µM]
1 | Conjugate of AH-Fc with apelin cyclic peptide: AH-Fc-BCN clicked to NH2-AzidoLys-GGGGS-Q-R-P-C-L-S-C-K-G-P-Dnle-Phenethylamine (from UniProt P0DOX5 223-449) (Fc fusion) | 0.0163
2 | Fc-Apelin conjugate using sortase: Fc-GGGGS-LPET-GGGGG-QRPC*LSC*KGP(D-Nle)Phenethylamine (Fc fusion) | 0.0289
